In patent US20260234276A1 (DOMAIN THERAPEUTICS, published 2026):
“And” between values parts separate entries of the source, which are not always exact repeats. Equal entries are not always repeated.

B1: 3-2 (antibody, V domains shown)
VH: EVQLVESGGGLVKPGGSLKLSCAASGFTFSSYAMSWVRQTPEKRLEWVATINSGGSYTFYPDSVKGRFTISRDNAKNTLYLQMSSLRSVDTAIYYCARVSGYDERFAYWGQGTLVTVSA
VL: DVLMTQTPLSLPVSLGAQASISCRSSQSIVHSNGNTYLEWYLQKPGQSPKLLIYKVSNRFSGVPDRFSGSGSGTDFTLKLSRVEAEDLGVYYCFQGSHVPPTFGGGTKLEIK
B2: 3-1 (antibody, V domains shown)
VH: EVQLVETGGGLVQPKGSLKVSCAASGFTFNTNAMNWVRQAPGKGLEWVARIRSKSNNYATYYADSVKDRFIISRDDSQSMLYLQMNNLKTEDTAMYYCVRGGYYGTSVYFDVWGAGTTVTVSS
VL: DIVMTQAAPSVPVTPGESVSISCRSSKSLLHSNGNTYLYWFLQRPGQSPQLLIYRMSNLASGVPDRFSGSGSGTAFTLRISRVEAEDVGVYYCMQHLEYPFTFGGGTKLEIK

Key:
[1] = target: T1, human CCR8 (human, UniProt P51685 1-355); assay: flow cytometry, hCCR8 transfected CHOK1 cells
T1 construct: the cells are named under assay; also called hCCR8

[2] = target: pm8 (human, sulfated tyrosines at Y15, Y16 and Y17); assay: ELISA on coated peptide
Sequence of pm8 (human, sulfated tyrosines at Y15, Y16 and Y17) (peptide, as listed by the source): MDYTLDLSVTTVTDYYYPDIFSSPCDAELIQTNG
Experimental: (§1) The specific binding properties of antibodies were evaluated by ELISA with coated CCR8 related peptides (500 ng/mL) in carbonate/bicarbonate buffer. Different peptides were used as described in Table 1 (see Example 1). Each anti-CCR8 mAb was tested at 1 μg/mL then diluted at 1/10. After an incubation at room temperature during 90 min, unbound mAbs were removed by washings. […] After washings, 3,3′,5,5′-tetramethylbenzidine (TMB) (Interchim, Montlugon, France) was added for 15 min. Then the optical density (OD) was determined by using a multiplate reader (Tecan, Lyon, France) and correlated with mAb reactivity on the panel of coated peptides.

[3] = target: pm3 (human, sulfated tyrosine at Y17); assay: ELISA on coated peptide
Sequence of pm3 (human, sulfated tyrosine at Y17) (peptide, as listed by the source): as above
Experimental: as §1

[4] = target: pm5 (human, sulfated tyrosines at Y15 and Y17); assay: ELISA on coated peptide
Sequence of pm5 (human, sulfated tyrosines at Y15 and Y17) (peptide, as listed by the source): as above
Experimental: as §1

[5] = target: pm6 (human, sulfated tyrosines at Y16 and Y17); assay: ELISA on coated peptide
Sequence of pm6 (human, sulfated tyrosines at Y16 and Y17) (peptide, as listed by the source): as above
Experimental: as §1

[6] = target: T1, human CCR8; assay: cell-based or functional assay

Row | Binder | % positive cells [1] [%] | MFI fold change to isotype ctrl [1] [fold] | binding result [2] | binding result [3] | binding result [4] | binding result [5] | IC50 (Gi2 BRET, pH 6.5) [6] | IC50 (Gi2 BRET, pH 7.4) [6]
1 | B1 | 51.2 | 3.41 | binds | binds | binds | binds |  | 
2 | B2 | 38.8 | 2.61 | binds | binds | binds | binds | > 4.5 µg/ml and > 30 nM | > 4.5 µg/ml and > 30 nM
